The values that follow come from patent publication US20230357429A1 (JANUX THERAPEUTICS, published 2023).

Like-named read-outs stand apart in the source and are kept apart here. Where no end group is shown, it is not given here.

Test [1] has as its target T1, CD3 (biotinylated CD3 antigen) (human, UniProt P07766 23-126, limits assumed, biotinylated (site not stated)).
T1 construct: also called CD3ε; human CD3
As to the kind of experiment: ELISA, TCE on captured biotin-CD3.

A further test concerns the target T2, Peptide-65 (cysteine pairing not given here; also: biotinylated, site not given here).
T2 construct: mask peptide for the CD3 scFv
T2 peptide: QGCGTIADPEPHCW
As to the kind of experiment: ELISA, TCE on captured biotin-peptide. On the technique in general: ELISA stands for enzyme-linked immunosorbent assay.

The target of test [2] is T3, Peptide-69 (cysteine pairing not given here; also: biotinylated, site not given here).
T3 construct: mask peptide for the CD3 scFv
T3 peptide: SECLVDLQSDPCYW
As to the kind of experiment: ELISA, TCE on captured biotin-peptide.

For test [3], the target named is T4, Peptide-75 (cysteine pairing not given here; also: biotinylated, site not given here).
T4 construct: mask peptide for the CD3 scFv
T4 peptide: GSACLGPEWEVCPY
The experiment in a line: ELISA, TCE on captured biotin-peptide.

The target of test [4] is T5, Peptide-66 (cysteine pairing not given here; also: biotinylated, site not given here).
T5 construct: mask peptide for the CD3 scFv
T5 peptide: GSQCLGPEWEVCPY
The experiment in a line: ELISA, TCE on captured biotin-peptide.

Test [5] has as its target T6, Peptide-74 (cysteine pairing not given here; also: biotinylated, site not given here).
T6 construct: mask peptide for the CD3 scFv
T6 peptide: ASQCLGPEWEVCPY
As to the kind of experiment: ELISA, TCE on captured biotin-peptide.

Test [6] deals with T7, Peptide-71 (cysteine pairing not given here; also: biotinylated, site not given here).
T7 construct: mask peptide for the CD3 scFv
T7 peptide: VDCGPDGDESILCY
As to the kind of experiment: ELISA, TCE on captured biotin-peptide.

The target of another test is T8, Peptide-72 (cysteine pairing not given here; also: biotinylated, site not given here).
T8 construct: mask peptide for the CD3 scFv
T8 peptide: AYCGPEFDESVGCM
As to the kind of experiment: ELISA, TCE on captured biotin-peptide.

In test [7] the target is T3, Peptide-69. The experiment in a line: ELISA, TCE on captured biotin-peptide.
The next test concerns the target T9, Peptide-68 (cysteine pairing not given here; also: biotinylated, site not given here).
T9 construct: mask peptide for the CD3 scFv
T9 peptide: DWCWYSPDNDGLCD
As to the kind of experiment: ELISA, TCE on captured biotin-peptide.

Test [8] concerns the target T7, Peptide-71. The experiment in a line: ELISA, TCE on captured biotin-peptide.
Test [9] addresses T4, Peptide-75. The experiment in a line: ELISA, TCE on captured biotin-peptide.
The next test deals with T10, Peptide-73 (cysteine pairing not given here; also: biotinylated, site not given here).
T10 construct: mask peptide for the CD3 scFv
T10 peptide: VYCGPEFDESVGCA
The experiment in a line: ELISA, TCE on captured biotin-peptide.

The next test concerns the target T11, Peptide-67 (cysteine pairing not given here; also: biotinylated, site not given here).
T11 construct: mask peptide for the CD3 scFv
T11 peptide: VYCGPEFDESVGCM
The experiment in a line: ELISA, TCE on captured biotin-peptide.

Test [10] deals with T5, Peptide-66. The experiment in a line: ELISA, TCE on captured biotin-peptide.
In test [11] the target is T6, Peptide-74. The experiment in a line: ELISA, TCE on captured biotin-peptide.
Test [12] concerns the target T1, CD3 (biotinylated CD3 antigen). As to the kind of experiment: ELISA, TCE on captured biotin-CD3. This is another data set of the same source.
Test [13] shares this target. The experiment in a line: ELISA: biotinylated CD3 captured on neutravidin plates, TCE titrated, HRP secondary antibody.
In another test the target is T12, αCD3 scFv.
T12 construct: also called anti-CD3 scFv; CD3 scFv (SP34.185) wt
The experiment in a line: competition ELISA; peptide titrated and pre-incubated with a constant concentration of αCD3 scFv; blocked: binding of the scFv to plate-bound biotinylated CD3.

The EC50 is the concentration at which the effect is half-maximal. The IC50 is the concentration at which inhibition is half-maximal.

T1 sequence (P07766 23-126 limits assumed): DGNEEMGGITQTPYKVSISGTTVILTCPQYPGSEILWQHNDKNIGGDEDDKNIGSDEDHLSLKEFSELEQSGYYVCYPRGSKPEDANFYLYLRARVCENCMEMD

B1: TCE-14 (anti-CD3 scFv F104A; anti-TROP2 wt) (bispecific antibody)
light: DIQLTQSPSSLSASVGDRVSITCKASQDVSIAVAWYQQKPGKAPKLLIYSASYRYTGVPDRFSGSGSGTDFTLTISSLQPEDFAVYYCQQHYITPLTFGAGTKVEIKRTVAAPSVFIFPPSDEQLKSGTASVVCLLNNFYPREAKVQWKVDNALQSGNSQESVTEQDSKDSTYSLSSTLTLSKADYEKHKVYACEVTHQGLSSPVTKSFNRGEC
heavy: not shown
notes: scFv on the Fab heavy chain; also called TCE-14 (F104A)
Take B1: the EC50 in [1] was determined as 0.83 nM; in the test with Peptide-65 it was 1.52 nM; in the test with Peptide-69 [2] it was 1.93 nM; with Peptide-75 [3], 0.88 nM; with Peptide-66 [4], 0.63 nM; with Peptide-74 [5], 0.66 nM.

B2: TCE-13 (anti-CD3 scFv N103A; anti-TROP2 wt) (bispecific antibody)
light: DIQLTQSPSSLSASVGDRVSITCKASQDVSIAVAWYQQKPGKAPKLLIYSASYRYTGVPDRFSGSGSGTDFTLTISSLQPEDFAVYYCQQHYITPLTFGAGTKVEIKRTVAAPSVFIFPPSDEQLKSGTASVVCLLNNFYPREAKVQWKVDNALQSGNSQESVTEQDSKDSTYSLSSTLTLSKADYEKHKVYACEVTHQGLSSPVTKSFNRGEC
heavy: not shown
notes: scFv on the Fab heavy chain; also called TCE-13 (N103A)
Regarding B2, the concentration for a half-maximal effect (EC50) came to 1.69 nM in [1]; 2.71 nM with Peptide-65; 1.69 nM in the test with Peptide-69 [2]; 0.34 nM with Peptide-71 [6]; 0.36 nM with Peptide-74 [5].

B3: TCE-33 (anti-CD3 scFv F240A; anti-TROP2 wt) (bispecific antibody)
light: DIQLTQSPSSLSASVGDRVSITCKASQDVSIAVAWYQQKPGKAPKLLIYSASYRYTGVPDRFSGSGSGTDFTLTISSLQPEDFAVYYCQQHYITPLTFGAGTKVEIKRTVAAPSVFIFPPSDEQLKSGTASVVCLLNNFYPREAKVQWKVDNALQSGNSQESVTEQDSKDSTYSLSSTLTLSKADYEKHKVYACEVTHQGLSSPVTKSFNRGEC
heavy: not shown
notes: scFv on the Fab heavy chain; also called TCE-33 (F240A)
B3: the EC50 with Peptide-72 was 5.78 nM; with Peptide-69 [7], 0.76 nM; in the test with Peptide-68, 7.71 nM; with Peptide-71 [8] it was 21.7 nM; with Peptide-75 [9], 9.2 nM; with Peptide-73, 8.15 nM. The EC50 amounted to 5.78 nM with Peptide-67; 8.02 nM with Peptide-66 [10]; 5.9 nM with Peptide-74 [11]; 1.24 nM in test [12]; 0.601 nM in test [13].

Regarding VYCGPEFDESVGCM (also called CD3 scFv peptide mask) [Peptide-67], the half-inhibitory concentration (IC50) with αCD3 scFv came out at 50 nM.

In the test with αCD3 scFv, YLCGPDGDETLACY (also called CD3 scFv peptide mask) [Peptide-70] came in with an IC50 of 10 nM.
